Where “and” joins values, the source holds several entries; their conditions need not be identical. Equal values may be shown once.
System: Na+ dependent phosphate co-transport in primary human renal proximal tubule epithelial cells (RPTEC)
Test: 33PO4 uptake scintillation proximity assay (SPA) in RPTEC
Format: cell-based
Description: Measurement of ^33PO4 uptake and ^14C-α-methyl D-glucose uptake. A novel technique, scintillation proximity assay (SPA), was used to measure ^33PO4 uptake in-vitro. Human renal proximal-tubule primary cells (RPTEC) were purchased from Clonetics-Biowhittaker (Walkersville, Md.) (cat. no. CC2553) and were cultured and subcultured using the manufacturers recommended protocols, methods, buffers and media (cat. nos. CC3190, CC5034). Also a human renal cell-line (Hu-CL8) was cultured as previously described (Rowe et al. Candidate 56 and 58 kDa protein(s) responsible for mediating the renal defects in oncogenic hypophosphatemic osteomalacia. Bone 18(2):159-169, 1996). For ^33PO4-uptake measurement cells were grown in REBM media supplemented with 5% fetal calf serum (REBM-FCS) to 80% confluence (Clonetics-Biowhitaker, Walkersville, Md.: cat. nos. CC2553, CC3190 and CC5034) and seeded into 96 well (3000 cells/well) cytostar-T scintillating-microplates (Amersham-Pharmacia Biotech, Piscataway, N.J.: cat. no. RPNQ 0162). Cells were then cultured in 200 μL of REBM-FCS media for 24 h. Media was then replaced with serum free media (REBM) and the cells incubated for a further 3-4 h with Hu-MEPE, PTH (1-34) or media control respectively in REBM media. The concentrations of PTH (1-34) and Hu-MEPE were […] and each experimental dose was repeated eight times for statistical analysis. Following incubation media was removed and replaced with either phosphate uptake buffer (PUB) consisting of 150 mM NaCl/1 mM Cacl2/1.8 mM MgSO4/10 mM HEPE pH 7.0/0.1 mM phosphate buffer pH 7.0 and 3 uCi mL^−1 33P as orthophosphoric acid (18 MBq/mL or 5775.7 Gbq/mg stock solution Perkin Elmer, Wellesley, Mass.: cat. no. NEZ080). In order to determine the Na-dependent phosphate co-transporter activity a separate set of control cells were incubated with the same buffer but with choline chloride (150 mM) substituted for NaCl (CHUB buffer). After 10 min at 37° C. the reaction was terminated by removing the PUB and CHUB buffers and replacing with STOP buffer (CHUB buffer without radioisotope). The cytostar scintillation plates were then directly assayed for counts (CPM) using a Hewlett-Packard (Palo Alto, Calif.) Multiplate Top-counter calibrated for ^33P SPA assay. Due to the unique design of the 96 well cytostar-plate radioactive decay in solution is not detected by the counter. In contrast, radioisotope attached to or taken into the cells initiates release of plastic-scintillant photons that are detected by the top-counter photo-multiplier tube. Thus, no washes are required and direct CPM can be counted in living cells. Following CPM determination the buffers were removed from the living cells and fresh media supplemented with cell-titre-96 (Promega-Biotech, Madison, Wis.: cat. no. G5421) cell-number detection media. Cells were then further incubated at 37° C. for 4 h. Conversion of a tetrazolium salt to a colored formazan product by living cells was then measured at 490 nm using a 96 well multi-well spectrophotometer with KC-4 software (absorbance at 490 nm is directly proportional to the number of living cells). Na-dependent ^33P uptake was then calculated by subtracting background counts and the choline chloride non Na-dependent ^33P uptake and results expressed as ^33PO4 femtomoles/10^4-cells/6 min. […]

B1: Hu-MEPE: purified insect expressed full-length recombinant human MEPE (Matrix Extracellular Phosphoglycoprotein) (protein)
chain: PTFQPQTEKTKQSCVEEQRQEEKNKDNIGFHHLGKRINQELSSKENIVQERKKDLSLSEASENKGSSKSQNYFTNRQRLNKEYSISNKENTHNGLRMSIYPKSTGNKGFEDGDDAISKLHDQEEYGAALIRNNMQHIMGPVTAIKLLGEENKENTPRNVLNIIPASMNYAKAHSKDKKKPQRDSQAQKSPVKSKSTHRIQHNIDYLKHLSKVKKIPSDFEGSGYTDLQERGDNDISPFSGDGQPFKDIPGKGEATGPDLEGKDIQTGFAGPSEAESTHLDTKKPGYNEIPEREENGGNTIGTRDETAKEADAVDVSLVEGSNDIMGSTNFKELPGREGNRVDAGSQNAHQGKVEFHYPPAPSKEKRKEGSSDAAESTNYNEIPKNGKGSTRKGVDHSNRNQATLNEKQRFPSKGKSQGLPIPSRGLDNEIKNEMDSFNGPSHENIITHGRKYHYVPHRQNNSTRNKGMPQGKGSWGRQPHSNRRFSSRRRDDSSESSDSGSSSESDGD
B1 was tested. Which “Vmax of percentage inhibition of 33PO4-uptake” value did it give?
The value was 53.4%.

And the “inhibition of Na+ dependent phosphate co-transport” value?
Its value is “dose-dependent in-vitro inhibition”.

And the “Km of inhibition of 33PO4-uptake” value (lineweaver-burke plot)?
The value was 27.4 ng/mL and 27.39 ng/mL.

Source: patent publication US20070099822A1, “Regulation of tissue mineralization and phosphate metabolism by asarm peptides” (priority 2003, published 2007)
